We go through 13 molecules from patent US20220048967A1 (published 2022).

Numbered stars: 1 amine (or outer) side, 2 acyl side, 3 side chain; on linkers, the order of the positions; unused ones are H or OH. Square brackets hold non-standard residues; d marks the D form. Side chains are listed from the residue outwards. Ends that are not written are not given here. * marks the point of attachment. C20 diacid = O=C(O)CCCCCCCCCCCCCCCCCCC(=O)*; γGlu = O=C(O)[C@H](CCC(=O)[*:2])N[*:1]; αMeL = CC(C)C[C@](C)(N)C(=O)O; Dab = NCC[C@H](N)C(=O)O; Dap = NC[C@H](N)C(=O)O; AEEA = NCCOCCOCC(=O)O; Aib = CC(C)(N)C(=O)O

The target in experiment [1] is T1, human gastric inhibitory peptide receptor (GIPR) (human, UniProt P48546 22-466).
T1 sequence (looked up): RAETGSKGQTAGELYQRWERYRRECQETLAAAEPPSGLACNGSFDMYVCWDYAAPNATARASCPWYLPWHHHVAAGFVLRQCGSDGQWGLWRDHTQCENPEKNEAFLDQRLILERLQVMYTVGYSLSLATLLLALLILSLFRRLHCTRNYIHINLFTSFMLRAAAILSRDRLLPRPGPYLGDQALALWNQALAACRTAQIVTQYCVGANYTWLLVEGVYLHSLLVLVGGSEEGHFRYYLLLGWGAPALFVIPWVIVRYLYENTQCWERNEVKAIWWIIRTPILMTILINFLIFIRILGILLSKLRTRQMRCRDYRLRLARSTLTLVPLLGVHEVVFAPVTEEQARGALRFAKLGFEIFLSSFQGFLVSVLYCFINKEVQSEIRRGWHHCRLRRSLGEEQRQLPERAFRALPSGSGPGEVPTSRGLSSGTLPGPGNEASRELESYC
Description: cell-based or functional assay.

Experiment [2] has as its target human GLP-1 receptor (GLP-1R) (human, UniProt P43220 24-463). Description: cell-based or functional assay.

B1: Example 347 (peptide)
peptide: [dY][Aib]EGTFTSDYSI[αMeL]LD[Dab]K([AEEA-AEEA-γGlu-C20 diacid])AQ[Aib]AFIEYLIAGGPSSGAPPPS-NH2
modifications: N-terminus assumed
SMILES: CC[C@H](C)[C@H](NC(=O)[C@H](CC(C)C)NC(=O)[C@H](Cc1ccc(O)cc1)NC(=O)[C@H](CCC(=O)O)NC(=O)[C@@H](NC(=O)[C@H](Cc1ccccc1)NC(=O)[C@H](C)NC(=O)C(C)(C)NC(=O)[C@H](CCC(N)=O)NC(=O)[C@H](C)NC(=O)[C@H](CCCCNC(=O)COCCOCCNC(=O)COCCOCCNC(=O)CC[C@H](NC(=O)CCCCCCCCCCCCCCCCCCC(=O)O)C(=O)O)NC(=O)[C@H](CCN)NC(=O)[C@H](CC(=O)O)NC(=O)[C@H](CC(C)C)NC(=O)[C@](C)(CC(C)C)NC(=O)[C@@H](NC(=O)[C@H](CO)NC(=O)[C@H](Cc1ccc(O)cc1)NC(=O)[C@H](CC(=O)O)NC(=O)[C@H](CO)NC(=O)[C@@H](NC(=O)[C@H](Cc1ccccc1)NC(=O)[C@@H](NC(=O)CNC(=O)[C@H](CCC(=O)O)NC(=O)C(C)(C)NC(=O)[C@H](N)Cc1ccc(O)cc1)[C@@H](C)O)[C@@H](C)O)[C@@H](C)CC)[C@@H](C)CC)C(=O)N[C@@H](C)C(=O)NCC(=O)NCC(=O)N1CCC[C@H]1C(=O)N[C@@H](CO)C(=O)N[C@@H](CO)C(=O)NCC(=O)N[C@@H](C)C(=O)N1CCC[C@H]1C(=O)N1CCC[C@H]1C(=O)N1CCC[C@H]1C(=O)N[C@@H](CO)C(N)=O
As for B1, in experiment [1], the “hGIPR cAMP EC50 ratio” value came to 0.872 and the “hGIPR cAMP Rel EC50” value stood at 82.7 pM. Also, in experiment [2], the “hGLP1R cAMP EC50 ratio” value was 0.245 and the “hGLP1R cAMP Rel EC50” value turned out to be 102 pM.

B2: Example 334 (peptide)
peptide: XXEGTFTSDYSIXLDKKAQXAFIEYLIEGGPSSGAPPPS
modifications: not fully specified; D-Tyr1, Aib2, αMeL13, (2-[2-(2-Amino-ethoxy)-ethoxy]-acetyl)2-(γ-Glu)-CO-(CH2)18-CO2H on K17, Aib20, C-terminal NH2
With B2, in experiment [1], the “hGIPR cAMP EC50 ratio” value amounted to 0.844 and the “hGIPR cAMP Rel EC50” value is 71.8 pM. Further, in experiment [2], the “hGLP1R cAMP EC50 ratio” value was 0.151 and the “hGLP1R cAMP Rel EC50” value came out at 303 pM.

B3: Example 337 (peptide)
peptide: FXEGTFTSDYSIXLDKKAQXAFIEYLIAGGPSSGAPPPS
modifications: not fully specified; Aib2, αMeL13, (2-[2-(2-Amino-ethoxy)-ethoxy]-acetyl)2-(γ-Glu)-CO-(CH2)18-CO2H on K17, Aib20, C-terminal NH2
Regarding B3, in experiment [1], the “hGIPR cAMP EC50 ratio” value came to 1.18 and the “hGIPR cAMP Rel EC50” value was 51.5 pM. Besides, in experiment [2], the “hGLP1R cAMP EC50 ratio” value came out at 0.265 and the “hGLP1R cAMP Rel EC50” value was determined as 173 pM.

B4: Example 339 (peptide)
peptide: YXEGTFTSDYSIXLDKKAQXEFIEYLIAGGPSSGAPPPS
modifications: not fully specified; Aib2, αMeL13, (2-[2-(2-Amino-ethoxy)-ethoxy]-acetyl)-(γ-Glu)-CO-(CH2)18-CO2H on K17, Aib20, C-terminal NH2
Take B4: in experiment [1], the “hGIPR cAMP EC50 ratio” value amounted to 3.18 and the “hGIPR cAMP Rel EC50” value was determined as 21.9 pM. Further, in experiment [2], the “hGLP1R cAMP EC50 ratio” value was determined as 0.574 and the “hGLP1R cAMP Rel EC50” value amounted to 98.6 pM.

B5: Example 349 (peptide)
peptide: XXEGTFTSDYSIXLDXKAQXEFIEYLIAGGPSSGAPPPS
modifications: D-Tyr1, Aib2, αMeL13, Orn16, (2-[2-(2-Amino-ethoxy)-ethoxy]-acetyl)2-(γ-Glu)-CO-(CH2)18-CO2H on K17, Aib20, C-terminal NH2
On to B5, for which, in experiment [1], the “hGIPR cAMP EC50 ratio” value came to 0.756 and the “hGIPR cAMP Rel EC50” value stood at 117 pM. In experiment [2], the “hGLP1R cAMP EC50 ratio” value was 0.214 and the “hGLP1R cAMP Rel EC50” value was 121 pM.

B6: Example 338 (peptide)
peptide: FXEGTFTSDYSIXLDKKAQXEFIEYLIAGGPSSGAPPPS
modifications: not fully specified; Aib2, αMeL13, (2-[2-(2-Amino-ethoxy)-ethoxy]-acetyl)2-(γ-Glu)-CO-(CH2)18-CO2H on K17, Aib20, C-terminal NH2
Turning to B6, in experiment [1], the “hGIPR cAMP EC50 ratio” value stood at 1.29 and the “hGIPR cAMP Rel EC50” value was determined as 47.2 pM. In experiment [2], the “hGLP1R cAMP EC50 ratio” value amounted to 0.262 and the “hGLP1R cAMP Rel EC50” value worked out at 174 pM.

B7: Example 341 (peptide)
peptide: XXEGTFTSDYSIXLDEKAQXAFIEYLIAGGPSSGAPPPS
modifications: not fully specified; D-Tyr1, Aib2, αMeL13, (2-[2-(2-Amino-ethoxy)-ethoxy]-acetyl)2-(γ-Glu)-CO-(CH2)18-CO2H on K17, Aib20, C-terminal NH2
As to B7, in experiment [1], the “hGIPR cAMP EC50 ratio” value worked out at 0.213 and the “hGIPR cAMP Rel EC50” value is 238 pM. Besides, in experiment [2], the “hGLP1R cAMP EC50 ratio” value is 0.0674 and the “hGLP1R cAMP Rel EC50” value was 373 pM.

B8: Example 342 (peptide)
peptide: XXEGTFTSDYSIXLDEKAQXEFIEYLIAGGPSSGAPPPS
modifications: not fully specified; D-Tyr1, Aib2, αMeL13, (2-[2-(2-Amino-ethoxy)-ethoxy]-acetyl)2-(γ-Glu)-CO-(CH2)18-CO2H on K17, Aib20, C-terminal NH2
For B8, in experiment [1], the “hGIPR cAMP EC50 ratio” value amounted to 0.32 and the “hGIPR cAMP Rel EC50” value came out at 159 pM. In experiment [2], the “hGLP1R cAMP EC50 ratio” value was 0.198 and the “hGLP1R cAMP Rel EC50” value came to 127 pM.

B9: Example 346 (peptide)
peptide: XXEGTFTSDYSIXLDXKAQXAFIEYLIAGGPSSGAPPPS
modifications: D-Tyr1, Aib2, αMeL13, Orn16, (2-[2-(2-Amino-ethoxy)-ethoxy]-acetyl)2-(γ-Glu)-CO-(CH2)18-CO2H on K17, Aib20, C-terminal NH2
B9: in experiment [1], the “hGIPR cAMP EC50 ratio” value is 0.604 and the “hGIPR cAMP Rel EC50” value came out at 144 pM. Also, in experiment [2], the “hGLP1R cAMP EC50 ratio” value stood at 0.21 and the “hGLP1R cAMP Rel EC50” value was determined as 128 pM.

B10: Example 344 (peptide)
peptide: YXEGTFTSDYSIXLDEKAQXDFIEYLIAGGPSSGAPPPS
modifications: Aib2, αMeL13, (2-[2-(2-Amino-ethoxy)-ethoxy]-acetyl)2-(γ-Glu)-CO-(CH2)18-CO2H on K17, Aib20, C-terminal NH2
As to B10, in experiment [1], the “hGIPR cAMP EC50 ratio” value was determined as 1.79 and the “hGIPR cAMP Rel EC50” value is 43.3 pM. In addition, in experiment [2], the “hGLP1R cAMP EC50 ratio” value worked out at 1.86 and the “hGLP1R cAMP Rel EC50” value worked out at 44 pM.

B11: Example 343 (peptide)
peptide: YXEGTFTSDYSIXLDEKAQXAFIXYLIAGGPSSGAPPPS
modifications: not fully specified; Aib2, αMeL13, (2-[2-(2-Amino-ethoxy)-ethoxy]-acetyl)2-(γ-Glu)-CO-(CH2)18-CO2H on K17, Aib20, D-Glu24, C-terminal NH2
With B11, in experiment [1], the “hGIPR cAMP EC50 ratio” value was found to be 1.84 and the “hGIPR cAMP Rel EC50” value came out at 42.2 pM. In experiment [2], the “hGLP1R cAMP EC50 ratio” value was determined as 0.662 and the “hGLP1R cAMP Rel EC50” value is 124 pM.

B12: Example 340 (peptide)
peptide: XXEGTFTSDYSIXLDKKAQXAFIEYLIAGGPSSGAPPPS
modifications: not fully specified; D-Tyr1, Aib2, αMeL13, (2-[2-(2-Amino-ethoxy)-ethoxy]-acetyl)2-(γ-Glu)-CO-(CH2)18-CO2H on K17, Aib20, C-terminal NH2
For the molecule B12, in experiment [1], the “hGIPR cAMP EC50 ratio” value is 0.852 and the “hGIPR cAMP Rel EC50” value was determined as 82.3 pM. In addition, in experiment [2], the “hGLP1R cAMP EC50 ratio” value stood at 0.183 and the “hGLP1R cAMP Rel EC50” value was 252 pM.

B13: Example 348 (peptide)
peptide: [dY][Aib]EGTFTSDYSI[αMeL]LD[Dap]K([AEEA-AEEA-γGlu-C20 diacid])AQ[Aib]AFIEYLIAGGPSSGAPPPS-NH2
modifications: N-terminus assumed
SMILES: CC[C@H](C)[C@H](NC(=O)[C@H](CC(C)C)NC(=O)[C@H](Cc1ccc(O)cc1)NC(=O)[C@H](CCC(=O)O)NC(=O)[C@@H](NC(=O)[C@H](Cc1ccccc1)NC(=O)[C@H](C)NC(=O)C(C)(C)NC(=O)[C@H](CCC(N)=O)NC(=O)[C@H](C)NC(=O)[C@H](CCCCNC(=O)COCCOCCNC(=O)COCCOCCNC(=O)CC[C@H](NC(=O)CCCCCCCCCCCCCCCCCCC(=O)O)C(=O)O)NC(=O)[C@H](CN)NC(=O)[C@H](CC(=O)O)NC(=O)[C@H](CC(C)C)NC(=O)[C@](C)(CC(C)C)NC(=O)[C@@H](NC(=O)[C@H](CO)NC(=O)[C@H](Cc1ccc(O)cc1)NC(=O)[C@H](CC(=O)O)NC(=O)[C@H](CO)NC(=O)[C@@H](NC(=O)[C@H](Cc1ccccc1)NC(=O)[C@@H](NC(=O)CNC(=O)[C@H](CCC(=O)O)NC(=O)C(C)(C)NC(=O)[C@H](N)Cc1ccc(O)cc1)[C@@H](C)O)[C@@H](C)O)[C@@H](C)CC)[C@@H](C)CC)C(=O)N[C@@H](C)C(=O)NCC(=O)NCC(=O)N1CCC[C@H]1C(=O)N[C@@H](CO)C(=O)N[C@@H](CO)C(=O)NCC(=O)N[C@@H](C)C(=O)N1CCC[C@H]1C(=O)N1CCC[C@H]1C(=O)N1CCC[C@H]1C(=O)N[C@@H](CO)C(N)=O
In the case of B13, in experiment [1], the “hGIPR cAMP EC50 ratio” value is 0.373 and the “hGIPR cAMP Rel EC50” value amounted to 193 pM. In experiment [2], the “hGLP1R cAMP EC50 ratio” value was determined as 0.224 and the “hGLP1R cAMP Rel EC50” value turned out to be 113 pM.
